Data reported in article PMC4661386 (2015).

How the values were obtained:
[1] = target: T1, CUB_C (CUB module and C-terminal peptide from human TSG-6), wild type (human, UniProt P98066 128-277); test: SPR
T1 chain: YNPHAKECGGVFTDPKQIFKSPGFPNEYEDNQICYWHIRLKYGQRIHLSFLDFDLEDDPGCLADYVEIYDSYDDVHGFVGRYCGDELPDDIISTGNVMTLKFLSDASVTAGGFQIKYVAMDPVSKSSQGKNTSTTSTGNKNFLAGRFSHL

[2] = target: T2, Full-length human TSG-6 (rhTSG-6), wild type (human, UniProt P98066 18-277); test: SPR; + 10 mM EDTA
[3] = target: T2, Full-length human TSG-6 (rhTSG-6), wild …; test: SPR; + 10 mM EDTA; remark: listed apart in the source

koff [1]: 0.0004 s⁻¹
Kd [2]: 5.1 nM
koff [3]: 0.0051 s⁻¹
B1: Recombinant human heavy chain 1 (rHC1) of inter-alpha-inhibitor, wild type (natural protein)
chain: SKSSEKRQAVDTAVDGVFIRSLKVNCKVTSRFAHYVVTSQVVNTANEAREVAFDLEIPKTAFISDFAVTADGNAFIGDIKDKVTAWKQYRKAAISGENAGLVRASGRTMEQFTIHLTVNPQSKVTFQLTYEEVLKRNHMQYEIVIKVKPKQLVHHFEIDVDIFEPQGISKLDAQASFLPKELAAQTIKKSFSGKKGHVLFRPTVSQQQSCPTCSTSLLNGHFKVTYDVSRDKICDLLVANNHFAHFFAPQNLTNMNKNVVFVIDISGSMRGQKVKQTKEALLKILGDMQPGDYFDLVLFGTRVQSWKGSLVQASEANLQAAQDFVRGFSLDEATNLNGGLLRGIEILNQVQESLPELSNHASILIMLTDGDPTEGVTDRSQILKNVRNAIRGRFPLYNLGFGHNVDFNFLEVMSMENNGRAQRIYEDHDATQQLQGFYSQVAKPLLVDVDLQYPQDAVLALTQNHHKQYYEGSEIVVAGRIADNKQSSFKADVQAHGEGQEFSITCLVDEEEMKKLLRERGHMLENHVERLWAYLTIQELLAKRMKVDREERANLSSQALQMSLDYGFVTPLTSMSIRGMADQDGLKPTIDKPSEDSPPLEMLGPRRTFVLSALQPSPTHSSSNTQRLPDRVTGVDTD
